{"source": "paper PMC4354731", "proteins": {"B1": {"name": "succinate dehydrogenase (SdhCDAB), SdhB subunit (Escherichia coli K-12) (protein)", "chain 1": "MRLEFSIYRYNPDVDDAPRMQDYTLEADEGRDMMLLDALIQLKEKDPSLSFRRSCREGVCGSDGLNMNGKNGLACITPISALNQPGKKIVIRPLPGLPVIRDLVVDMGQFYAQYEKIKPYLLNNGQNPPAREHLQMPEQREKLDGLYECILCACCSTSCPSFWWNPDKFIGPAGLLAAYRFLIDSRDTETDSRLDGLSDAFSVFRCHSIMNCVSVCPKGLNPTRAIGHIKSMLLQRNA", "chain 2": "MIRNVKKQRPVNLDLQTIRFPITAIASILHRVSGVITFVAVGILLWLLGTSLSSPEGFEQASAIMGSFFVKFIMWGILTALAYHVVVGIRHMMMDFGYLEETFEAGKRSAKISFVITVVLSLLAGVLVW", "chain 3": "MVSNASALGRNGVHDFILVRATAIVLTLYIIYMVGFFATSGELTYEVWIGFFASAFTKVFTLLALFSILIHAWIGMWQVLTDYVKPLALRLMLQLVIVVALVVYVIYGFVVVWGV"}}, "key": {"[1]": {"substrate": "CC(C)=CCC1=C(O)C(=O)c2ccccc2C1=O", "test": "lapachol:fumarate oxidoreductase steady-state kinetics in membranes", "type": "biochemical, Escherichia coli", "conditions": "[3Fe-4S], [4Fe-4S], [2Fe-2S] clusters; FAD; heme b"}, "[2]": {"substrate": "COC1=C(OC)C(=O)C(C)=CC1=O", "test": "succinate:Q0 oxidoreductase steady-state kinetics in membranes", "type": "biochemical, Escherichia coli", "conditions": "[3Fe-4S], [4Fe-4S], [2Fe-2S] clusters; FAD; heme b"}}}
{"protein": "B1", "values": [{"measurement": "Km", "setting": "[1]", "value": 100, "unit": "µM"}, {"measurement": "kcat", "setting": "[1]", "value": 11.9, "unit": "s⁻¹"}, {"measurement": "Km", "setting": "[2]", "value": 150, "unit": "µM"}, {"measurement": "kcat", "setting": "[2]", "value": 33.9, "unit": "s⁻¹"}]}
